# Data: patent US20250026851A1 (AKAMIS BIO, published 2025)
# T1: Human EpCAM on cells (human, UniProt P16422 24-314)
# T1 sequence: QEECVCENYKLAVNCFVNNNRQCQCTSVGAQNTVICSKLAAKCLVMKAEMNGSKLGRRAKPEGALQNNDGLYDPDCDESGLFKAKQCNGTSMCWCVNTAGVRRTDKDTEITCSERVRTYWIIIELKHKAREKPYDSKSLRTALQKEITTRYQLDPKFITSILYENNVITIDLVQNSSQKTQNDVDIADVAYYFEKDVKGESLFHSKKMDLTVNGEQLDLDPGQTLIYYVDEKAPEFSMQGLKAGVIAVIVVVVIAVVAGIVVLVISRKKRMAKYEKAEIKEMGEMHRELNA
# T2: human EpCAM/TROP-1 protein (Sino Biological Inc, #10694-H02H-50) (human, UniProt P16422 24-265)
# T2 construct: also called recombinant EpCAM protein; recombinant EpCAM
# T2 sequence (looked up): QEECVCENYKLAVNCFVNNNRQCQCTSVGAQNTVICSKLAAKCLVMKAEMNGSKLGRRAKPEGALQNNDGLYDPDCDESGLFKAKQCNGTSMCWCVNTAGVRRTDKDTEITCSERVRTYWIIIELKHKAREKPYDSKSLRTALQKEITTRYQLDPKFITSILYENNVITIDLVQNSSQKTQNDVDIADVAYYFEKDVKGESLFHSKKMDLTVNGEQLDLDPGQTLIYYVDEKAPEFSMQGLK
# How the values were obtained:
# [1] = molecular target: T1, Human EpCAM on cells; experiment: cell-based or functional assay
# [2] = molecular target: T3, human FAP/seprase protein (Sino Biological Inc, 10464-H07H-10) (human, UniProt Q12884 26-760); experiment: ELISA on plate-coated human FAP/seprase (100 ng/well), anti-His detection, A450
# T3 construct: also called recombinant FAP protein; FAP protein
# [3] = molecular target: T2, human EpCAM/TROP-1 protein (Sino …); experiment: ELISA on plate-coated human EpCAM/TROP-1 (50 ng/well), anti-His detection, A450
# [4] = molecular target: Human FAP (fibroblast activation protein) on cells (human, UniProt Q12884 1-760); experiment: cell-based or functional assay
binder,measurement,setting,value
"EpCAM bispecific T-cell activator (anti-EpCAM scFv x anti-CD3 scFv, with N-terminal signal sequence and C-terminal deca-His affinity tag) (bispecific antibody) ELVMTQSPSSLTVTAGEKVTMSCKSSQSLLNSGNQKNYLTWYQQKPGQPPKLLIYWASTRESGVPDRFTGSGSGTDFTLTISSVQAEDLAVYYCQNDYSYPLTFGAGTKLEIKGGGGSGGGGSGGGGSEVQLLEQSGAELVRPGTSVKISCKASGYAFTNYWLGWVKQRPGHGLEWIGDIFPGSGNIHYNEKFKGKATLTADKSSSTAYMQLSSLTFEDSAVYFCARLRNWDEPMDYWGQGTTVTVSSGGGGSDVQLVQSGAEVKKPGASVKVSCKASGYTFTRYTMHWVRQAPGQGLEWIGYINPSRGYTNYADSVKGRFTITTDKSTSTAYMELSSLRSEDTATYYCARYYDDHYCLDYWGQGTTVTVSSGEGTSTGSGGSGGSGGADDIVLTQSPATLSLSPGERATLSCRASQSVSYMNWYQQKPGKAPKRWIYDTSKVASGVPARFSGSGSGTDYSLTINSLEAEDAATYYCQQWSSNPLTFGGGTKVEIKHHHHHHHHHH","EC50 of T cell-mediated lysis of DLD cells (LDH assay, 24 h, 8,000 DLD with 40,000 T-cells)",[1],7.4 ng/mL
"Control (Anti-FHA) bispecific T-cell activator (anti-FHA scFv x anti-CD3 scFv, with N-terminal signal sequence and C-terminal deca-His affinity tag) (bispecific antibody) ELDIVMTQAPASLAVSLGQRATISCRASKSVSSSGYNYLHWYQQKPGQPPKLLIYLASNLESGVPARFSGSGSGTDFTLNIHPVEEEDAATYYCQHSREFPLTFGAGTKLEIKSSGGGGSGGGGGGSSRSSLEVQLQQSGPELVKPGASVKISCKTSGYTFTGYTMHWVRQSHGKSLEWIGGINPKNGGIIYNQKFQGKATLTVDKSSSTASMELRSLTSDDSAVYYCARRVYDDYPYYYAMDYWGQGTSVTVSSAKTTPPSVTSGGGGSDVQLVQSGAEVKKPGASVKVSCKASGYTFTRYTMHWVRQAPGQGLEWIGYINPSRGYTNYADSVKGRFTITTDKSTSTAYMELSSLRSEDTATYYCARYYDDHYCLDYWGQGTTVTVSSGEGTSTGSGGSGGSGGADDIVLTQSPATLSLSPGERATLSCRASQSVSYMNWYQQKPGKAPKRWIYDTSKVASGVPARFSGSGSGTDYSLTINSLEAEDAATYYCQQWSSNPLTFGGGTKVEIKHHHHHHHHHH",binding result,[2],no binding (tested: supernatant protein diluted 10-fold)
same,binding result,[3],no binding (tested: supernatant protein diluted 10-fold)
"FAP bispecific T-cell activator (anti-FAP scFv x anti-CD3 scFv, with N-terminal signal sequence and C-terminal deca-His affinity tag) (bispecific antibody) DIVMTQSPDSLAVSLGERATINCKSSQSLLYSRNQKNYLAWYQQKPGQPPKLLIFWASTRESGVPDRFSGSGFGTDFTLTISSLQAEDVAVYYCQQYFSYPLTFGQGTKVEIKGGGGSGGGGSGGGGSQVQLVQSGAEVKKPGASVKVSCKTSRYTFTEYTIHWVRQAPGQRLEWIGGINPNNGIPNYNQKFKGRVTITVDTSASTAYMELSSLRSEDTAVYYCARRRIAYGYDEGHAMDYWGQGTLVTVSSGGGGSDVQLVQSGAEVKKPGASVKVSCKASGYTFTRYTMHWVRQAPGQGLEWIGYINPSRGYTNYADSVKGRFTITTDKSTSTAYMELSSLRSEDTATYYCARYYDDHYCLDYWGQGTTVTVSSGEGTSTGSGGSGGSGGADDIVLTQSPATLSLSPGERATLSCRASQSVSYMNWYQQKPGKAPKRWIYDTSKVASGVPARFSGSGSGTDYSLTINSLEAEDAATYYCQQWSSNPLTFGGGTKVEIKHHHHHHHHHH","EC50 of T cell-mediated lysis of NHDF cells (LDH assay, 24 h, 8,000 NHDF with 40,000 T-cells)",[4],3.2 ng/mL
same,EC50 of fibroblast (NHDF) lysis by LDH release after 24 h co-culture with PBMC T-cells,[4],~2.5 ng/mL
